The assay addresses synthetic peptide on H-2Kb (mouse). Kind of assay: data from [108]; method not given; soluble, other.

The substance YAe62 displayed a Kd of 15 µM.

A word on the Kd: it is the constant that tells how readily two partners part at equilibrium.

Source of the values: PMC7793522.
